Results reported in US20100035825.

Experiments:
[1] = target: T1, Ac-KE^217VD-CHO
T1 chain: KEVD

[2] = target: T2, Ac-KKPD^105-CHO
T2 chain: KKPD

B1: purified recombinant procaspase 8 (human, Alexis Biochemicals) (protein)
chain: SESQTLDKVYQMKSKPRGYCLIINNHNFAKAREKVPKLHSIRDRNGTHLDAGALTTTFEELHFEIKPHDDCTVEQIYEILKIYQLMDHSNMDCFICCILSHGDKGIIYGTDGQEAPIYELTSQFTGLKCPSLAGKPKVFFIQACQGDNYQKGIPVETDSEEQPYLEMDLSSPQTRYIPDEADFLLGMATVNNCVSYRNPAEGTWYIQSLCQSLRERCPRGDDILTILTEVNYEVSNKDDKKNMGKQMPQPTFTLRKKLVFPSD
in vitro self-activation of caspase 8 (colorimetric substrate, tetrapeptides at 200 µM) [1]: inhibited | in vitro self-activation of caspase 8 (colorimetric substrate, tetrapeptides at 200 µM) [2]: inhibited
